# Assay results reported in PMC5955193, “Streptococcus gallolyticus subsp. gallolyticus endocarditis isolate interferes with coagulation and activates the contact system” (Virulence, 2017).
# B1: Pil1 collagen-binding adhesin Gallo2179 of Streptococcus gallolyticus subsp. gallolyticus UCN34, recombinant (natural protein)
# chain: MFYYLGEGIINFRKLFIALVLIIFSFFTVSEVRAADVSNRVTSLTVATTELQDGGRTTVRVEFNDRAGKIHSGDTIEVTWSISNSIYLNGYTKSIPLTIQGVNVGTLEVTEHNAIFKFNSNIETMENVSGWGEFEVIGRNVTNTSSENTGTAVVQVGGYSQNISITKPQSGTGTSSFYYKTGDIQPSDTNRVRWFLLVNNNKEYVESDVTIEDDIQSGQTLDMSSFDITISGYQNKRFVGESALEEFKRSCPNSSIEITQKSEGGHISIRLSRDDVILNTISIHYKTKILDFDQEKFANNSNITYKPLYKDWVTNKESNYEVVNVNANGGVDGSRYTSVTVNKVWNDKDNQDGKRSDKVVIQLLADGQEISGKQLELSEENGWSGTFEKLNKYHSDNTLITYTVKEVTDLPDYQTTVSENSKNNYTITNTHIPEVIDLSGKKIWDDNNNQDGIRPETITVHLLANGVDTGQVKTVSKSDNWEYQFKDLPKYQNGEKVVYTVSEDVVVGYEMSVSGMNLTNTHTPEVTNILISKYWDDNDDKLKKRPESIQITLHANGKEYQTVTLTASNQWQYEFKDLPKYKDGEKIAYTVTEADVPNYQLISIEEDESGNWKITNKVEESYLFPNTGGKGISGYYTVGIVLLLSIGLLFLKKFIGDY
# modifications: fluorescent label NT-647 covalently attached by NHS coupling (in the MST only)
# Tests used:
# [1] = target: T1, human coagulation factor XII (human); experiment: MST; NT-647 labeled Gallo2179 kept constant (estimated 50-300 nM); 16-step serial dilution of non-labeled FXII (6.25 μM - 0.19 nM) or HK (4.15 μM - 0.12 nM); Monolith NT.115; three independent measurements; conditions: both partners purified
# T1 construct: coagulation factor XII (serine protease zymogen), human; also called FXII; contact factor XII; source: bought: Haemochrom Diagnostica, Germany
# [2] = target: T1, human coagulation factor XII; experiment: SPR; Biacore 3000, CM3 chip, Gallo2179 immobilised (1900 RUs) by amine coupling; FXII as analyte at 12.5 - 200 nM; 25°C, PBS running buffer; 1:1 Langmuir global fit; conditions: both partners purified
binder,measurement,setting,value
B1,Kd,[1],12.9 nM
same,Kd,[2],14 nM
